Assay results reported in US7534862.

What was measured:
[1] = molecular target: hyper-IL-6 (H-IL-6), a fusion protein comprising IL-6+sIL-6R (UniProt P08887); assay: cell-based or functional assay
[2] = molecular target: IL-6/sIL-6R complex (100 ng/ml IL-6 + 50 ng/ml sIL-6R) (UniProt P05231); assay: cell-based or functional assay
IL-6/sIL-6R complex (100 ng/ml IL-6 + 50 ng/ml sIL-6R), sequence (P05231 30-212 limits assumed, chain 1 of 2): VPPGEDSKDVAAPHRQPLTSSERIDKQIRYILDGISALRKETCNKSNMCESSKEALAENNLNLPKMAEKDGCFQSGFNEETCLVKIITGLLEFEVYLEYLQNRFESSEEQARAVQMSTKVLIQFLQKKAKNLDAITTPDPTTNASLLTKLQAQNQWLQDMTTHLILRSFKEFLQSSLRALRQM
IL-6/sIL-6R complex (100 ng/ml IL-6 + 50 ng/ml sIL-6R), sequence (P08887 20-358 limits assumed, chain 2 of 2, further chain): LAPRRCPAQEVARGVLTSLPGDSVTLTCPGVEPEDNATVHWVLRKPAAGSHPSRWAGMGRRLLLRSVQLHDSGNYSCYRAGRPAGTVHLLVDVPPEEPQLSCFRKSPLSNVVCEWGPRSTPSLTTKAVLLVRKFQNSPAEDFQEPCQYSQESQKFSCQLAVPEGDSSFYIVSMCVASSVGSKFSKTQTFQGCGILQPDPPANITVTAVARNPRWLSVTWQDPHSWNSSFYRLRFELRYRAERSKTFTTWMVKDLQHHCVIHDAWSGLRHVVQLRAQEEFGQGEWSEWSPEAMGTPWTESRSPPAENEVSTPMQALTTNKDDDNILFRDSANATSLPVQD

sgp130TagPEG (PEGylated sgp130Tag / sgp130(D1-D3)-His, forked PEG), sequence (P40189 other isoform, or with tags, fused parts or gaps): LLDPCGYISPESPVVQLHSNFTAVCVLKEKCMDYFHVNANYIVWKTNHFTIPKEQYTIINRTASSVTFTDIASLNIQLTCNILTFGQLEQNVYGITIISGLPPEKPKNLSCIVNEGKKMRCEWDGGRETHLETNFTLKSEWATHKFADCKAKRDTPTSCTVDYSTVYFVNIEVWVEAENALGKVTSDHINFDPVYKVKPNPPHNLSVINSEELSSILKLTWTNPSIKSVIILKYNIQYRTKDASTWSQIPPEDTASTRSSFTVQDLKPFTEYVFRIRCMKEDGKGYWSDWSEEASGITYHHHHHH
hyper-IL-6 (H-IL-6), a fusion protein comprising IL-6+sIL-6R, sequence (P08887 20-323 limits assumed, chain 1 of 2): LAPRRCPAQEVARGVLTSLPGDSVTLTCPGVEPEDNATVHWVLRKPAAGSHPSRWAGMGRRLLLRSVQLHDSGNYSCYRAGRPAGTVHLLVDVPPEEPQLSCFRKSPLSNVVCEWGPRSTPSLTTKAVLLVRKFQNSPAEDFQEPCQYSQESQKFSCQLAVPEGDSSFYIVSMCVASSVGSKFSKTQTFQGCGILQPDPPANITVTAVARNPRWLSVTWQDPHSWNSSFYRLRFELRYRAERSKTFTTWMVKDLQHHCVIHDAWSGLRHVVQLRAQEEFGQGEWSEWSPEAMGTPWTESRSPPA
hyper-IL-6 (H-IL-6), a fusion protein comprising IL-6+sIL-6R, sequence (P05231 30-212 limits assumed, chain 2 of 2, further chain): as the sequence (P05231 30-212 limits assumed, chain 1 of 2) above
Human sgp130Fc, sequence (P40189 23-619 limits assumed): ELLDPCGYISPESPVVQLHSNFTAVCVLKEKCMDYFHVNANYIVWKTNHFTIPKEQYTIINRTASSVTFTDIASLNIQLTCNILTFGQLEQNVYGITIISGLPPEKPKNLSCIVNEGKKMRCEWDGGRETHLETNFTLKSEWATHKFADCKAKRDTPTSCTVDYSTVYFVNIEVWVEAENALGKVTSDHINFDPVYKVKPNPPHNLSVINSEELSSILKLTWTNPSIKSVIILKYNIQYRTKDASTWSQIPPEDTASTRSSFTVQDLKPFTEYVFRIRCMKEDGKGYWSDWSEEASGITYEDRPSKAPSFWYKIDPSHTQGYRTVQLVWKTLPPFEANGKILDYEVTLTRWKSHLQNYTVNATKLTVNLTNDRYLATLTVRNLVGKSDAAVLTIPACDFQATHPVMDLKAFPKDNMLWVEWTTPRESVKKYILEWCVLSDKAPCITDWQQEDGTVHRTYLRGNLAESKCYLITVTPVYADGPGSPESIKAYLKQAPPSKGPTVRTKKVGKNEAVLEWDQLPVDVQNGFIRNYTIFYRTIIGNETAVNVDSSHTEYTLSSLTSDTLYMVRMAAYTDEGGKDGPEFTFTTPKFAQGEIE

Substance | STAT3 activity (relative luciferase activity, pSTAT3-TA-Luc reporter in BAF/gp130 cells) at 10 ug/ml inhibitor, 5 ng/ml H-IL-6 (% of activity with H-IL-6 alone) [1] | factor of improvement over sgp130Fc in inhibition of BAF/gp130 proliferation (fold vs sgp130Fc) [2] | half-maximal [3H]-thymidine incorporation of BAF/gp130 cells (proliferation) [2] [ng/mL] | concentration giving half-maximal activation of STAT3 (H-IL-6-induced, luciferase reporter in BAF/gp130 cells) [1] [µg/mL] | efficiency relative to sgp130Fc in inhibition of H-IL-6-induced STAT3 activation (fold vs sgp130Fc) [1] | factor of improvement over sgp130Fc in inhibition of BAF/gp130 proliferation (fold vs sgp130Fc) [1] | half-maximal [3H]-thymidine incorporation of BAF/gp130 cells (proliferation) [1] [ng/mL]
Human sgp130Fc (from UniProt P40189 23-619) (Fc fusion) | 26 | – | – | – | – | – | –
sgp130TagPEG (PEGylated sgp130Tag / sgp130(D1-D3)-His, forked PEG) (from UniProt P40189 24-322) (receptor) | 19 | 1.5 to 3 | 1 to 5 | 2.5 | 2 to 3 | 1.5 to 3 | 1 to 5
